{"source": "patent US20240123088A1", "target": "RmaDnaB-SpdCas9C (Rhodothermus marinus DnaB C-intein fused to the C-terminal split SpdCas9, HA-tagged) (Rhodothermus marinus (C-intein); Streptococcus pyogenes (dCas9 half)) (UniProt Q99ZW2)", "test": "cell-based or functional assay", "data": [{"substance": "SpdCas9N-RmaDnaB (N-terminal split SpdCas9 fused to the Rhodothermus marinus DnaB N-intein, FLAG-tagged)", "values": [{"measurement": "in vivo reconstitution of tsdCas9, Western blot band intensity, mouse striatum co-transduced with AAV9", "result": "> 50", "unit": "%"}]}]}
